Test results reported in patent publication US20090285799A1.

Experiments:
[1] = target: T1, human IL-13Rα1 on normal human dermal fibroblast (NHDF) cells (human) (UniProt P78552); test: cell-based or functional assay
T1 sequence: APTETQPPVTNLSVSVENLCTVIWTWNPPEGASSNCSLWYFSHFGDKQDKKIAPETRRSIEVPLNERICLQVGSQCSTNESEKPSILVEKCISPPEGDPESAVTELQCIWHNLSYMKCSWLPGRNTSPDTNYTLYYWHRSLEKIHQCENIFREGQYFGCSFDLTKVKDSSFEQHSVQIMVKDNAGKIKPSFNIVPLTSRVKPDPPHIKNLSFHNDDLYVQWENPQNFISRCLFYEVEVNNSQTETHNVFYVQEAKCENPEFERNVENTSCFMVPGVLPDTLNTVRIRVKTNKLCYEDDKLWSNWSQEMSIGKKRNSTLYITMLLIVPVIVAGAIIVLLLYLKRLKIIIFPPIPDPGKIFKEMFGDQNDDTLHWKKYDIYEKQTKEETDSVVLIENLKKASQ

[2] = target: T2, hIL-13Rα1.ECR (N-terminal FLAG-tagged fusion protein of the extracellular region of human IL-13Rα1) (human) (UniProt P78552); test: ELISA on plate-bound hIL-13Rα1.ECR
T2 sequence: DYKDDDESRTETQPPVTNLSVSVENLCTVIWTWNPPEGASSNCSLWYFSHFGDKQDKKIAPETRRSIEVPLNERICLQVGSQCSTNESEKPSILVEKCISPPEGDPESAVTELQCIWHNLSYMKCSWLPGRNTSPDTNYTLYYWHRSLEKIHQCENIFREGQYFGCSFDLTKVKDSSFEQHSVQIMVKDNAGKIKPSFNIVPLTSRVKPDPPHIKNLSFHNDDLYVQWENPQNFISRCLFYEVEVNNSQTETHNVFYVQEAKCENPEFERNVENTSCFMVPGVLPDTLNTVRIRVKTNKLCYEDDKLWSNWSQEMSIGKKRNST

[3] = target: T2, hIL-13Rα1.ECR (N-terminal FLAG-tagged fusion protein of the extracellular region of human IL-13Rα1) (human); test: BIACORE SPR, hIL-13Rα1.ECR immobilized on CM5 chip, antibody as analyte, bivalent model

B1: 4A10 (antibody, part only; not given: light chain, V domains shown, part only)
VH: QVQLVESGGGVVQPGRSLRLSCAASGFTFSNYGMHWVRQAPGKGLEWVAAIWYDGSDKNYADSVKGRVTISRDTSKKTLYLQMNSLRAEDTAIYYCAREITIMRGLIKNYYYYGMDVWGQGTTVTVSS
B1 gave an NHDF cells IL-13 Eotaxin release (IC50) [on average] [1] of 0.35 µg/mL, a Kd [2] of 1.2 nM and a Kd [3] of 5.8 nM.
